Source: publication PMC3181058

Molecular target: Protein A (Staphylococcus aureus) (UniProt P38507)
Experiment: ITC

Substance	dH [kcal/mol]	stoichiometry N	KA, first binding site [M⁻¹]	N, first binding site	dH, first binding site [kcal/mol]
Trastuzumab (Herceptin), free monoclonal antibody	-105	2.78			
Nanoparticle-conjugated trastuzumab (CS-DOX-mAb) (antibody)			3.48e+06	1.65	-93.9
